Measurements as given in patent publication US11653679B2, “High-purity steviol glycosides” (PureCircle Sdn Bhd, priority 2014, dated 2023).
Where two headings read alike, the source gives them in different places. Values belong to the molecule of their own block, whether it stands above or below them.

How the values were obtained:
Assay type in all cases: biochemical
[1] = LC-MS of reaction mixtures of GI No. 460409128 with Rebaudioside A (Example 23)
Protocol: The reaction mixtures representing GI No. 460409128, particularly the sample “12400 S115N05A7 T24h 130627ABA” of EXAMPLE 20 (hereinafter S115N05A7), and the sample “12400 S129N04 T45h 130712ABA” of EXAMPLE 22 (hereinafter S129N04) were additionally assayed by LC-MS to identify the unknown glycosides. An Agilent 1200 series HPLC system, equipped with binary pump (G1312B), autosampler (G1367D), thermostatted column compartment (G1316B), DAD detector (G1315C), connected with Agilent 6110A MSD, and interfaced with “LC/MSD Chemstation” software, was used.
The compound observed on LCMS system at 3.5 min, corresponds to compound “Unknown@4.508” in sample “S115N05A7” (EXAMPLE 20), and compound “Unknown@RT4.526” in sample “S129N04” (EXAMPLE 22).
The ratio of these compounds and the LCMS chromatograms are provided below.

[2] = Activity for Stevioside to Rebaudioside E conversion with UGTSL, UGTSL2, UGTLB (Examples 28, 32); conditions: 600 μL lysate, based on initial concentration of Stevioside; for Rebaudioside E formation: 0.5 mM Stevioside; for Stevioside conv. (reaction time): 0.5 mM substrate
Protocol: (§1) Activity tests were performed at 3 mL scale with 600 μL of lysate for the transformation of Stevioside using 0.5 mM of substrate, 2.5 mM of UDP-Glucose and 3 mM MgCl2 in 50 mM Sodium Phosphate buffer at pH 7.2. Samples were taken and analyzed by HPLC. HPLC Analysis. The HPLC assay was performed as described in EXAMPLE 20.
as §1, with “HPLC.” for “HPLC. HPLC Analysis.”, “corresponding chromatograms are depicted” for “HPLC assay was performed as described”, “FIG. 63a.” for “EXAMPLE 20.”

[3] = Rubusoside conversion products with UGTSL, UGTSL2, UGTLB by LCMS (Example 33); conditions: reaction time UGTSL2 2 hrs, UGTLB 5 hrs, UGTSL 45 hrs
Protocol: (§2) Conversion of stevioside with UGTSL and UGTSL2 was conducted in similar manner to Example 28, and the conversion of rubusoside with UGTSL and UGTSL2 was conducted similarly to Example 29. Conversions of rubusoside and stevioside with UGTLB was conducted similarly to Example 32.
(§3) The reaction mixtures were analyzed by LCMS to determine all reaction products.

[4] = Catalytic test Rebaudioside A to Rebaudioside D with in-vitro expressed UDP-glucosyltransferases (Examples 20, 21), HPLC
Protocol: The prepared expression medium mix was added to the plasmid solution and the solution was allowed to incubate at 30° C. for 3 hours while mixing the mixture every 45 minutes. 5 μL of the mixture was frozen whereas the remainder was used for the catalytic test for the conversion of Rebaudioside A to Rebaudioside D.
(§4) 430 μL of a reaction mixture containing 0.5 mM Rebaudioside A, 3 mM MgCl2, 50 mM phosphate buffer (pH7.2) and 2.5 mM UDP-glucose was added to a 1.5 mL sterile microtube. 52 μl of the enzyme expression medium was added and the resulting mixture was allowed to react at 30° C. for 24 hours. 125 μL samples were taken after 2 hours, 16 hours and 24 hours and added to a 115 μL of 60% methanol and 10 μL of 2 N H2SO4. The quenched sample was centrifuged at 18,000 g for 2 minutes at RT. 200 μL was transferred to an HPLC vial and analyzed.
The HPLC assay was performed as follows:
as §4, with “μL” for “μl”, “to” for “to an”
(§5) The HPLC assay was performed as described in EXAMPLE 20.

[5] = Activity for Rubusoside to Rebaudioside E conversion with UGTSL, UGTSL2, UGTLB (Examples 29, 32); conditions: 600 μL lysate, based on initial concentration of Rubusoside; for Rebaudioside E formation: 0.5 mM Rubusoside; for Rubusoside conv. (reaction time): 0.5 mM substrate
Protocol: as §1, with “Rubusoside” for “Stevioside”, “HPLC.” for “HPLC. HPLC Analysis.”
(§6) Activity tests were performed at 3 mL scale with 600 μL of lysate for the transformation of Rubusoside using 0.5 mM of substrate, 2.5 mM of UDP-Glucose and 3 mM MgCl2 in 50 mM Sodium Phosphate buffer at pH 7.2. Samples were taken and analyzed by HPLC. The corresponding chromatograms are depicted in FIG. 63b.

[6] = Activity of in-vivo produced enzymes for transformation of Rebaudioside A (Example 22)
Protocol: Activity tests were performed at 5 mL scale with 1,000 μL of thawed lysate for the transformation of Rebaudioside A using 0.5 mM of substrate, 2.5 mM of UDP-Glucose and 3 mM MgCl2 in 50 mM Sodium Phosphate buffer at pH 7.2. Samples were taken and analyzed by HPLC.
as §5

[7] = Stevioside conversion products with UGTSL, UGTSL2, UGTLB by LCMS (Example 33); conditions: reaction time UGTSL2 2 hrs, UGTLB 2 hrs, UGTSL 22 hrs
Protocol: as §2, §3

[8] = Activity for Rebaudioside A to Rebaudioside D conversion with UGTSL2, UGTLB (Examples 30, 32); conditions: UGTLB, 22 h., 600 μL lysate, based on initial concentration of Rebaudioside A
Protocol: as §1, with “60” for “600”, “Rebaudioside A” for “Stevioside”, “HPLC.” for “HPLC. HPLC Analysis.”
as §6, with “Rebaudioside A” for “Rubusoside”, “chromatogram after 23 h. of reaction is” for “chromatograms are”, “63c.” for “63b.”

[9] = 0.5 mM Rebaudioside A, 30° C., HPLC

- Reb D selectivity ([6]; after 45 hrs.): 43.6%
B1: gi460409128_XP_004249992.1: cyanidin-3-O-glucoside 2-O-glucuronosyltransferase-like [Solanum lycopersicum], SEQ ID NO:5; S129N04 is its Example 22 reaction sample (protein, listed as Solanum lycopersicum)
chain: MSPKLHKELFFHSLYKKTRSNHTMATLKVLMFPFLAYGHISPYLNVAKKLADRGFLIYFCSTPINLKSTIEKIPEKYADSIHLIELHLPELPQLPPHYHTTNGLPPNLNQVLQKALKMSKPNFSKILQNLKPDLVIYDILQRWAKHVANEQNIPAVKLLTSGAAVFSYFFNVLKKPGVEFPFPGIYLRKIEQVRLSEMMSKSDKEKELEDDDDDDDLLVDGNMQIMLMSTSRTIEAKYIDFCTALTNWKVVPVGPPVQDLITNDVDDMELIDWLGTKDENSTVFVSFGSEYFLSKEDMEEVAFALELSNVNFIWVARFPKGEERNLEDALPKGFLERIGERGRVLDKFAPQPRILNHPSTGGFISHCGWNSAMESIDFGVPIIAMPMHLDQPMNARLIVELGVAVEIVRDDDGKIHRGEIAETLKGVITGKTGEKLRAKVRDISKNLKTIRDEEMDAAAEELIQLCRNGN
- Steviol glycoside conversion in reaction mixture, Reb A [1]: 49.00 % area
- Steviol glycoside conversion in reaction mixture, Reb D [1]: 23.73 % area
- Steviol glycoside conversion in reaction mixture, Reb UNK (reb D2) [1]: 21.22 % area
- Steviol glycoside conversion in reaction mixture, Unknown@RT3.5 (reb M2) [1]: 6.05 % area
- Steviol glycoside conversion in reaction mixture, Reb A ([1]; listed as S115N05A7): 53.24 % area
- Steviol glycoside conversion in reaction mixture, Reb D ([1]; listed as S115N05A7): 20.35 % area
- Steviol glycoside conversion in reaction mixture, Reb UNK (reb D2) ([1]; listed as S115N05A7): 19.93 % area
- Steviol glycoside conversion in reaction mixture, Unknown@RT3.5 (reb M2) ([1]; listed as S115N05A7): 6.47 % area
- Rebaudioside E formation ([2]; reaction time UGTSL 22 h., UGTSL2 2 h.): 46%
- Stevioside conv. (reaction time) ([2]; reaction time UGTSL 22 h., UGTSL2 2 h., 2.5 mM UDP-Glucose, pH 7.2): 74% (22 h.)
- LC-MS, peak area ratio (%): REb E [3]: 35.88%
- LC-MS, peak area ratio (%): Reb D [3]: 3.45%
- LC-MS, peak area ratio (%): Rub [3]: 7.82%
- LC-MS, peak area ratio (%): Stev [3]: 2.37%
- LC-MS, peak area ratio (%): Unknown peak #1 (MW804) RT 30.70 min [3]: 20.38%
- LC-MS, peak area ratio (%): Unknown peak #2 (MW804) RT 49.50 min [3]: 27.75%
- LC-MS, peak area ratio (%): Unknown peak #3 (MW804) RT 50.40 min [3]: 2.35%
- Steviol glycoside conversion in reaction mixture, Reb A [4, 9]: 46.7 % area
- Steviol glycoside conversion in reaction mixture, Reb UNK (later identified as reb D2) [4, 9]: 23.3 % area
- Conversion RebA to RebD ([4]; in-vitro expressed enzyme): Active
- Rebaudioside E formation ([5]; reaction time UGTSL 45 h., UGTSL2 2 h.): 27%
- Rubusoside conv. (reaction time) ([5]; reaction time UGTSL 45 h., UGTSL2 2 h., 2.5 mM UDP-Glucose, pH 7.2): 70% (45 h.)
- Conversion after 45 hrs. ([6]; 0.5 mM, in-vivo produced enzyme lysate): 62.1%
- LC-MS, peak area ratio (%): Reb D [7]: 0.54%
- LC-MS, peak area ratio (%): Reb E [7]: 49.68%
- LC-MS, peak area ratio (%): Stev [7]: 25.24%
- LC-MS, peak area ratio (%): Unknown peak #1 (MW966) RT = 22.60 min [7]: 3.97%
- LC-MS, peak area ratio (%): Unknown peak #2 (MW966) RT = 26.50 min [7]: 20.56%

B2: UGTLB: UDP-glucosyltransferase, Lycium barbarum, SEQ ID NO:10 (protein, listed as Escherichia coli)
chain: MGTEVTVHKNTLRVLMFPWLAYGHISPFLNVAKKLVDRGFLIYLCSTAINLKSTIKKIPEKYSDSIQLIELHLPELPELPPHYHTTNGLPPHLNHTLQKALKMSKPNFSKILQNLKPDLVIYDLLQQWAEGVANEQNIPAVKLLTSGAAVLSYFFNLVKKPGVEFPFPAIYLRKNELEKMSELLAQSAKDKEPDGVDPFADGNMQVMLMSTSRIIEAKYIDYFSGLSNWKVVPVGPPVQDPIADDADEMELIDWLGKKDENSTVFVSFGSEYFLSKEDREEIAFGLELSNVNFIWVARFPKGEEQNLEDALPKGFLERIGDRGRVLDKFAPQPRILNHPSTGGFISHCGWNSVMESVDFGVPIIAMPIHLDQPMNARLIVELGVAVEIVRDDYGKIHREEIAEILKDVIAGKSGENLKAKMRDISKNLKSIRDEEMDTAAEELIQLCKNSPKLK
- Rebaudioside D formation ([8]; 0.5 mM Rebaudioside A): 10%
- Rebaudioside A conv. (reaction time) ([8]; 0.5 mM substrate): 72% (22 h.)
- Rebaudioside E formation ([2]; UGTLB, 22 h.): 3%
- Stevioside conv. (reaction time) ([2]; UGTLB, 22 h.): 89% (22 h.)
- LC-MS, peak area ratio (%): REb E [3]: 9.21%
- LC-MS, peak area ratio (%): Reb D [3]: 1.29%
- LC-MS, peak area ratio (%): Rub [3]: 13.49%
- LC-MS, peak area ratio (%): Unknown peak #1 (MW804) RT 30.70 min [3]: 4.07%
- LC-MS, peak area ratio (%): Unknown peak #2 (MW804) RT 49.50 min [3]: 66.67%
- LC-MS, peak area ratio (%): Unknown peak #3 (MW804) RT 50.40 min [3]: 5.27%
- Rebaudioside E formation ([5]; UGTLB, 5 h.): 4%
- Rubusoside conv. (reaction time) ([5]; UGTLB, 5 h.): 65% (5 h.)
- LC-MS, peak area ratio (%): Reb E [7]: 3.12%
- LC-MS, peak area ratio (%): Stev [7]: 43.11%
- LC-MS, peak area ratio (%): Unknown peak #2 (MW966) RT = 26.50 min [7]: 53.78%
